Data on four molecules can be found in patent publication US20030182691A1.

In series [1] the target is T1, papain (cysteine protease) (UniProt P00784).
T1 sequence (looked up): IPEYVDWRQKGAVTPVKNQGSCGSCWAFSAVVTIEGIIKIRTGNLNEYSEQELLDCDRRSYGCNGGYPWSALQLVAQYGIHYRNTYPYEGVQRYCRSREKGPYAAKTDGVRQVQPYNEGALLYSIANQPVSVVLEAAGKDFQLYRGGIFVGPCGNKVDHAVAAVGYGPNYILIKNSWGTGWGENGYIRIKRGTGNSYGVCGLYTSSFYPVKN
Nature of the series: phage ELISA, papain coated in well, phage diluted 1 in 100, anti-M13/HRP detection. (In general: ELISA stands for enzyme-linked immunosorbent assay.)

Series [2] addresses trypsin (serine protease). Nature of the series: phage ELISA, trypsin coated in well, phage diluted 1 in 100, anti-M13/HRP detection.
In series [3] the target is POP-1 protein: Brassica napus Sta 44G(2) / Sitophilus zeamais SCPc1 protease translational fusion (Brassica napus; Sitophilus zeamais). Nature of the series: cell-based or functional assay.
Series [4] deals with T1, papain (cysteine protease). Nature of the series: cell-based or functional assay.
For series [5], the target named is T2, OV7/GST (cysteine protease inhibitor OV7 conjugated to GST), P22085.
T2 chain: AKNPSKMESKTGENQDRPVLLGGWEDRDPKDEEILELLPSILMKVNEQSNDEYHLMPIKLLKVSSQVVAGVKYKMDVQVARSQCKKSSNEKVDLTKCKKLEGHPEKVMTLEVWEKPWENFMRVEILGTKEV

Series [6] addresses T3, POV-1 protein: Brassica napus Sta 44G(2) / Onchocerca volvulus OV7 protease inhibitor translational fusion, P22085.
T3 chain: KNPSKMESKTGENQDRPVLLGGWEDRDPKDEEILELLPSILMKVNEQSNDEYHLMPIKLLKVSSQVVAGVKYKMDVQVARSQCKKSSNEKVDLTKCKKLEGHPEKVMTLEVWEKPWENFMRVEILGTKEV

Turning to “M13 wild type or control phage not displaying any foreign protein”, the results for the O.D.410 (O.D. at 410 nm) in series [1] and in series [2] were 0.043 and 0.026, respectively.

B1: POV-1 protein: Brassica napus Sta 44G(2) / Onchocerca volvulus OV7 protease inhibitor translational fusion (protein)
chain: T3 chain
In series [3], B1 returned a Percent Loss of Viability (Alexander staining of pollen, F1 plant POP 2 X POV 20 No. 2) of 19%; a Percent Loss of Viability (Alexander staining of pollen, F1 plant POP 2 X POV 20 No. 3) of 21%; a Percent Loss of Viability (Alexander staining of pollen, F1 plant POP 12 X POV 20 No. 1) of 66%; a Percent Loss of Viability (Alexander staining of pollen, F1 plant POP 12 X POV 20 No. 4) of 58%. Also, in series [3], the Percent Loss of Viability (Alexander staining of pollen, F1 plant POP 12 X POV 25 No. 1) was 26% and the Percent Loss of Viability (Alexander staining of pollen, F1 plant POP 12 X POV 25 No. 2) turned out to be 19%.

B2: recombinant onchocystatin (OV7), cysteine protease inhibitor (protein)
chain: T2 chain
In the case of B2, in series [4], the Average Pollen Tube Length (tobacco pollen in vitro, 42 µM papain + 30 µM onchocystatin) is 80 µm and the Pollen Germination (tobacco pollen in vitro, 42 µM papain + 30 µM onchocystatin) is 69%.

B3: papain (cysteine protease) (protein)
chain: T1 sequence (looked up)
As for B3, the “percentage of papain protease activity (substrate Pyr-Phe-Leu-pNA, 410 nm) relative to the non-transformed control plant extract” value is listed as 2% in series [5] and 53% to 61% in series [6].
